Experimental data published in the Immune Epitope Database (IEDB).

Key:
HLA-A*03:01 [1] = test: IEDB peptide-MHC binding, purified MHC/competitive/fluorescence; ≥ and ≤ were set here for values at or beyond the usual limits of such assays
HLA-B*08:01 [2] = test: as above
HLA-A*11:01 = test: as above; conditions: source organism: Variola virus
HLA-A*24:03 = test: IEDB peptide-MHC binding, purified MHC/direct/fluorescence; filed as Kd, often an IC50 or EC50 that approximates it; ≥ and ≤ were set here for values at or beyond the usual limits of such assays; conditions: source organism: Mycobacterium tuberculosis str. Haarlem
HLA-A*23:01 = test: as above; conditions: source organism: Mycobacterium tuberculosis str. Haarlem
HLA-B*40:01 [3] = test: IEDB peptide-MHC binding, purified MHC/competitive/fluorescence; filed as Kd, often an IC50 or EC50 that approximates it; ≥ and ≤ were set here for values at or beyond the usual limits of such assays
HLA-A*24:02 = test: IEDB peptide-MHC binding, purified MHC/competitive/fluorescence; ≥ and ≤ were set here for values at or beyond the usual limits of such assays; conditions: source organism: Zaire ebolavirus
HLA-A*02:01 [4] = test: as above
HLA-B*15:01 = test: as above; conditions: source organism: Vaccinia virus WR
HLA-C*12:03 = test: IEDB peptide-MHC binding, purified MHC/direct/fluorescence; filed as Kd, often an IC50 or EC50 that approximates it; ≥ and ≤ were set here for values at or beyond the usual limits of such assays
HLA-B*08:01 [5] = test: IEDB peptide-MHC binding, purified MHC/competitive/fluorescence; filed as Kd, often an IC50 or EC50 that approximates it; ≥ and ≤ were set here for values at or beyond the usual limits of such assays; conditions: source organism: Escherichia coli
HLA-B*39:01 = test: as above; conditions: source organism: Escherichia coli
HLA-C*15:02 = test: IEDB peptide-MHC binding, purified MHC/direct/fluorescence; filed as Kd, often an IC50 or EC50 that approximates it; ≥ and ≤ were set here for values at or beyond the usual limits of such assays
HLA-A*01:01 = test: IEDB peptide-MHC binding, purified MHC/competitive/radioactivity; filed as Kd, often an IC50 or EC50 that approximates it; ≥ and ≤ were set here for values at or beyond the usual limits of such assays; conditions: source organism: Dengue virus 4 Philippines/H241/1956
HLA-B*58:01 = test: IEDB peptide-MHC binding, purified MHC/direct/fluorescence; filed as Kd, often an IC50 or EC50 that approximates it; ≥ and ≤ were set here for values at or beyond the usual limits of such assays
HLA-B*57:01 = test: as above
HLA-C*06:02 = test: as above
HLA-A*02:01 [6] = test: IEDB peptide-MHC binding, purified MHC/competitive/radioactivity; filed as Kd, often an IC50 or EC50 that approximates it; ≥ and ≤ were set here for values at or beyond the usual limits of such assays; conditions: source organism: Vaccinia virus WR
HLA-A*02:02 = test: as above; conditions: source organism: Vaccinia virus WR
HLA-A*02:06 = test: as above; conditions: source organism: Vaccinia virus WR
HLA-A*02:03 = test: as above; conditions: source organism: Vaccinia virus WR
HLA-C*05:01 = test: IEDB peptide-MHC binding, purified MHC/direct/fluorescence; filed as Kd, often an IC50 or EC50 that approximates it; ≥ and ≤ were set here for values at or beyond the usual limits of such assays; conditions: source organism: human gammaherpesvirus 4
HLA-B*18:01 = test: as above; conditions: source organism: West Nile virus
HLA-B*15:09 = test: as above; conditions: source organism: West Nile virus strain PTRoxo
HLA-A*31:01 = test: as above; conditions: source organism: West Nile virus
HLA-B*48:01 = test: as above; conditions: source organism: West Nile virus
HLA-B*27:05 = test: as above; conditions: source organism: West Nile virus
HLA-B*46:01 = test: as above; conditions: source organism: West Nile virus
HLA-A*03:01 [7] = test: as above; conditions: source organism: West Nile virus
HLA-B*07:02 = test: as above; conditions: source organism: West Nile virus
HLA-B*40:01 [8] = test: as above; conditions: source organism: West Nile virus
HLA-B*44:02 = test: as above; conditions: source organism: West Nile virus
HLA-A*02:01 [9] = test: IEDB peptide-MHC binding, purified MHC/competitive/fluorescence; filed as Kd, often an IC50 or EC50 that approximates it; ≥ and ≤ were set here for values at or beyond the usual limits of such assays; conditions: source organism: West Nile virus
[10] = source organism: Zaire ebolavirus
[11] = source organism: Sudan ebolavirus
[12] = source organism: Vaccinia virus WR
[13] = source organism: Giardia lamblia ATCC 50803
[14] = source organism: West Nile virus

In the case of AVARKHHTK, the IC50 (HLA-A*03:01 [1]; source organism: Variola virus) is reported as 1460 nM, the IC50 (HLA-B*08:01 [2]; source organism: Variola virus) is reported as no less than 436000 nM and the IC50 (HLA-A*11:01) is reported as 471 nM.

AYLFTPLFK was tested, and the Kd (HLA-A*24:03) was 185 nM and the Kd (HLA-A*23:01) was 356 nM.

EEAKLFFQV was tested, and the Kd (HLA-B*40:01 [3]; source organism: Yersinia pestis Antiqua) was 6.4 nM.

ELRTFSILN showed an IC50 (HLA-A*24:02) of 30100 nM and an IC50 (HLA-B*08:01 [2]; [10]) of no less than 302000 nM.

FLRATTELR showed an IC50 (HLA-A*02:01 [4]; [11]) of 56200 nM, an IC50 (HLA-A*03:01 [1]; [11]) of 26100 nM and an IC50 (HLA-B*08:01 [2]; [10]) of no less than 87800 nM.

Work on FMHEQGYSH yielded an IC50 (HLA-A*02:01 [4]; [12]) of 9720 nM, an IC50 (HLA-B*15:01) of 14800 nM and an IC50 (HLA-B*08:01 [2]; [12]) of no less than 301000 nM.

FQRAIMNAM gave a Kd (HLA-C*12:03; source organism: Escherichia coli MS 119-7) of 99 nM, a Kd (HLA-B*08:01 [5]) of 154 nM and a Kd (HLA-B*39:01) of 37.7 nM.

FTTNIWMKF was tested, and the Kd (HLA-C*15:02; source organism: dengue virus type 4) was no less than 20000 nM and the Kd (HLA-A*01:01) was 5160 nM.

For GLLIVKTVL, the IC50 (HLA-A*02:01 [4]; [10]) was 294 nM, the IC50 (HLA-A*24:02) was no less than 105000 nM and the IC50 (HLA-B*08:01 [2]; [10]) was no less than 135000 nM.

Sequence HEYQGKAVL has a Kd (HLA-B*40:01 [3]; source organism: Bacillus anthracis str. A0488) of 5.1 nM.

Work on IEHALAHQL yielded a Kd (HLA-B*40:01 [3]; source organism: Salmonella enterica subsp. enterica serovar Typhi) of 7.7 nM.

KTWGQYWQV gave a Kd (HLA-C*15:02; source organism: Homo sapiens) of 49 nM.

Work on LEPRVFGWM yielded a Kd (HLA-B*40:01 [3]; source organism: Escherichia coli F11) of 71.3 nM.

For LETCHRNAF, the Kd (HLA-B*40:01 [3]; source organism: Escherichia coli 536) was 1030 nM.

With NELGVPFHL the Kd (HLA-B*40:01 [3]; source organism: Influenza A virus (A/nt/60/1968(H3N2))) was 2.1 nM.

Sequence RTHEESLRL has a Kd (HLA-C*15:02; [13]) of 50 nM, a Kd (HLA-B*58:01; [13]) of 1480 nM and a Kd (HLA-B*57:01; [13]) of 2080 nM.

Work on VLPFDIKYI yielded a Kd (HLA-C*06:02; source organism: Vaccinia virus L-IPV) of 3390 nM, a Kd (HLA-A*02:01 [6]) of 15 nM and a Kd (HLA-A*02:02) of 135 nM. It also gave a Kd (HLA-A*02:06) of 506 nM and a Kd (HLA-A*02:03) of 9.68 nM.

Sequence VTDEGTSSF has a Kd (HLA-C*05:01) of no more than 1 nM and a Kd (HLA-C*06:02; source organism: human gammaherpesvirus 4) of 332 nM.

For YTMDGEYRL, the Kd (HLA-B*18:01) was no less than 20000 nM, the Kd (HLA-B*15:09) was no less than 20000 nM and the Kd (HLA-A*31:01) was no less than 20000 nM. For the same sequence, the Kd (HLA-B*48:01) was no less than 20000 nM, the Kd (HLA-B*27:05) was no less than 20000 nM and the Kd (HLA-B*46:01) was no less than 20000 nM. It also gave a Kd (HLA-C*12:03; [14]) of 347 nM, a Kd (HLA-A*03:01 [7]) of no less than 20000 nM and a Kd (HLA-B*07:02) of no less than 20000 nM. The Kd (HLA-C*15:02; [14]) was 85 nM, the Kd (HLA-B*58:01; [14]) was no less than 20000 nM and the Kd (HLA-B*40:01 [8]) was no less than 20000 nM. For the same sequence, the Kd (HLA-B*44:02) was no less than 20000 nM, the Kd (HLA-B*57:01; [14]) was no less than 20000 nM and the IC50 (HLA-A*02:01 [4]; source organism: West Nile virus NY-99) was 291 nM. For the same sequence, the Kd (HLA-A*02:01 [9]) was 1.37 nM.
